Results taken from US20140308239A1 (ELEVEN BIOTHERAPEUTICS, published 2014).
Where a chain is given by its changes, count along the chain named. Values belong to the molecule of their own block, whether it stands above or below them.

Columns and labels:
[1] = target: IL-1RI on HEK-Blue IL-1β responsive cells (UniProt P14778)
[2] = target: T1, IL-1RI on HEK-Blue IL-1β responsive cells (UniProt P14778 18-569); experiment: cell-based or functional assay
T1 sequence (looked up): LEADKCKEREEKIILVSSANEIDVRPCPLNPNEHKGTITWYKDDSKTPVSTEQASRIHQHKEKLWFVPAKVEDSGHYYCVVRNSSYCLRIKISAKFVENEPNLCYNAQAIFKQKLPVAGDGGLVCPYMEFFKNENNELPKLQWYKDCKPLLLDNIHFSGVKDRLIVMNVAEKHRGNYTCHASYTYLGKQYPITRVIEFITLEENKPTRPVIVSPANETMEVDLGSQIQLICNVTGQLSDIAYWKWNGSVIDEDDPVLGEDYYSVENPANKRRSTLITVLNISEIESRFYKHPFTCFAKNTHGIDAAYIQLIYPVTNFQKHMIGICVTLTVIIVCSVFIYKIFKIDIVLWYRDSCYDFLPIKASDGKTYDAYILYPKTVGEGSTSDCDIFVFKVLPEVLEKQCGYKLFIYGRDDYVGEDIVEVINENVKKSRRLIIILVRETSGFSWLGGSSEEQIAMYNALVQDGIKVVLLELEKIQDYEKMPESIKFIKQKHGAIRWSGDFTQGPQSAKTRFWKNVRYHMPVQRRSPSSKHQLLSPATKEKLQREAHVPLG

[3] = target: T2, soluble recombinant human IL-1RI (corresponding to the extracellular domain of IL-1RI) (human, UniProt P14778 18-336); experiment: SPR (Reichert SR7000DC), soluble recombinant human IL-1RI, PBS with 0.005% Tween 20
T2 construct: extracellular domain
T2 sequence (looked up): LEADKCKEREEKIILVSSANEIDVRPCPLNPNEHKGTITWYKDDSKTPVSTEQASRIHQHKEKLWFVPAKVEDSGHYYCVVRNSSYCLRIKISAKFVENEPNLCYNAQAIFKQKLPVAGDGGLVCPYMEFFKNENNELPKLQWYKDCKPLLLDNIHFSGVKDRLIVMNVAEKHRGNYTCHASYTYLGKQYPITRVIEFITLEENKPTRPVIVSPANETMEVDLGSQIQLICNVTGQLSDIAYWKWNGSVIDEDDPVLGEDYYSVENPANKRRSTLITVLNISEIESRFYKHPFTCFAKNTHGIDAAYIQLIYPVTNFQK
Method: The binding properties of proteins for soluble recombinant human IL-1RI (corresponding to the extracellular domain of IL-1RI) were evaluated using surface plasmon resonance with a Reichert SR7000DC Dual Channel SPR system. Binding was evaluated in phosphate buffered saline with 0.005% Tween 20. […] Thus, the P01 protein bound to IL-1RI with a greater affinity than did IL-1β under similar conditions.

[4] = target: T1, IL-1RI on HEK-Blue IL-1β responsive …; experiment: cell-based or functional assay; remark: listed apart in the source
[5] = target: T1, IL-1RI on HEK-Blue IL-1β responsive …; experiment: cell-based or functional assay; remark: listed apart in the source

OD650 (SEAP reporter of HEK-Blue IL-1β cells, agonism test, negative control; amount of protein not given) [1]: 0.06 OD650
Molecule: GUS (enzyme)

OD650 (SEAP reporter of HEK-Blue IL-1β cells, agonism test, protein alone; amount of protein not given) [4]: 0.222 OD650
Kd [3]: 92.6 nM
koff [3]: 0.00146 s⁻¹
kon [3]: 15800 M⁻¹ s⁻¹
B2: P07 (designed binder)
chain: APVRSLNCRIWDVNQKTFYLRNNQLVAGYLQGPNVNLEEKFSMSFVQGEESNDKIPVALGLKEKNLYLSCVLKDDKPTLQLESVDPKNYPKKKMEKRFVFNKIEINNKLEFESAQFPNWFLCTAMEADQPVSLTNMPDEGQDITDFTMQFVSS
notes: Expressed in E. coli

IC50 (read off the curve); HEK-Blue IL-1β SEAP reporter, IL-1β 0.1 ng/ml, lysate with untagged P03, concentration estimated [2]: ~2 ng/mL
Kd [3]: 0.29 nM
koff [3]: 0.0012 s⁻¹
kon [3]: 4.1e+06 M⁻¹ s⁻¹
B3: P03 (designed binder)
chain: APVRSLAFRIWDVNQKTFYLRNNQLVAGYLQGPNVNLEEKFSMSFVQGEESNDKIPVALGLKEKNLYLSCVLKDDKPTLQLESVDPKNYPKKKMEKRFVFIRSDSGPTTSFESAACPGWFLCTAMEADQPVSLTNMPDEGVMVTKFTMQFVSS
notes: Expressed in E. coli; also called chimeric cytokine domain P03

The remaining lines, values behind:

B1: P04 (designed binder)
chain: B2 chain with N7A, C8F, Q115A, F116C, N118G, Q141V, D142M, I143V, D145K
notes: Expressed in E. coli; also called chimeric cytokine domain P04
IC50 (read off the curve); HEK-Blue IL-1β SEAP reporter, IL-1β 0.1 ng/ml, lysate with untagged P04, concentration estimated [2]: ~6 ng/mL
Kd [3]: 1.71 nM

B4: P05 (designed binder)
chain: B2 chain with Q141V, D142M, I143V, D145K, T147Y
notes: Expressed in E. coli; also called EBI-005; chimeric cytokine domain P05
IC50, antagonism of IL-1β activity in the HEK-Blue IL-1β SEAP reporter assay [5]: < 5 ng/mL
Kd [3]: 0.012 nM
koff [3]: 4.15e-05 s⁻¹
kon [3]: 3.47e+06 M⁻¹ s⁻¹

B5: P06 (designed binder)
chain: APVRSLNCTLWDVNQKTFYLRNNQLVAGYLQGPNVEQQVVFSMSFVQGEESNDKIPVALGLKEKNLYLSCVLKDDKPTLQLESVDPKNYPKKKMEKRFVFNKIEINNKLEFESAQFPNWYISTSMEADQPVFLGGTKGGQDITDFTMQFVSS
notes: Expressed in E. coli
OD650 (SEAP reporter of HEK-Blue IL-1β cells, agonism test, protein alone; amount of protein not given) [4]: 1.78 OD650
Kd [3]: 0.41 nM
koff [3]: 0.0017 s⁻¹
kon [3]: 4.8e+06 M⁻¹ s⁻¹

B6: P01 (designed binder)
chain: APVRSLAFRIWDVNQKTFYLRNNQLVAGYLQGPNVNLEEKIDVSFVQGEESNDKIPVALGIHGGKMCLSCVKSGDETRLQLEAVDPKNYPKKKMDKRFAFIRSDSGPTTSFESAACPGWFLCTAMEADQPVSLTNMPDEGVMVTKFYMQFVSS
notes: Expressed in E. coli; In the cell assay, supernatants or lysates containing P01 were used; also called chimeric cytokine domain P01
OD650 (SEAP reporter of HEK-Blue IL-1β cells, agonism test, protein alone; amount of protein not given) [4]: 0.061 OD650
IC50 (read off the curve); HEK-Blue IL-1β SEAP reporter, IL-1β 0.1 ng/ml, lysate with untagged P01, concentration estimated [2]: ~1 ng/mL
Kd [3]: 0.47 nM
koff [3]: 2.32e-05 s⁻¹
kon [3]: 49300 M⁻¹ s⁻¹

B7: P02 (designed binder)
chain: APVRSLAFRIWDVNQKTFYLRNNQLVAGYLQGPNVNLEEKIDVSFVQGEESNDKIPVALGIHGGKMCLSCVKSGDETRLQLEAVDPKNYPKKKMEKRFVFNKIEINNKLSFESAACPGWFLCTAMEADQPVSLTNMPDEGVMVTKFYMQFVSS
notes: Expressed in E. coli; also called chimeric cytokine domain P02
IC50 (read off the curve); HEK-Blue IL-1β SEAP reporter, IL-1β 0.1 ng/ml, lysate with untagged P02, concentration estimated [2]: ~1 ng/mL
Kd [3]: 0.636 nM
koff [3]: 2.16e-05 s⁻¹
kon [3]: 33900 M⁻¹ s⁻¹
